{"source": "patent US8058228B2", "about": "“Leptin peptide antagonists” (Boston Biomedical Research Institute, priority 2004, dated 2011)", "key": {"[1]": {"target": "T1, OB-R (Homo sapiens, UniProt P48357)", "T1 construct": "After confirming via Western that the primary EEC and ESC and endometrial cell lines utilized herein had OB-R; endogenous in cells; host or cells: primary human EEC and ESC; Ishikawa (ECACC 9832301) and HES cell lines", "T1 sequence (P48357 22-1165)": "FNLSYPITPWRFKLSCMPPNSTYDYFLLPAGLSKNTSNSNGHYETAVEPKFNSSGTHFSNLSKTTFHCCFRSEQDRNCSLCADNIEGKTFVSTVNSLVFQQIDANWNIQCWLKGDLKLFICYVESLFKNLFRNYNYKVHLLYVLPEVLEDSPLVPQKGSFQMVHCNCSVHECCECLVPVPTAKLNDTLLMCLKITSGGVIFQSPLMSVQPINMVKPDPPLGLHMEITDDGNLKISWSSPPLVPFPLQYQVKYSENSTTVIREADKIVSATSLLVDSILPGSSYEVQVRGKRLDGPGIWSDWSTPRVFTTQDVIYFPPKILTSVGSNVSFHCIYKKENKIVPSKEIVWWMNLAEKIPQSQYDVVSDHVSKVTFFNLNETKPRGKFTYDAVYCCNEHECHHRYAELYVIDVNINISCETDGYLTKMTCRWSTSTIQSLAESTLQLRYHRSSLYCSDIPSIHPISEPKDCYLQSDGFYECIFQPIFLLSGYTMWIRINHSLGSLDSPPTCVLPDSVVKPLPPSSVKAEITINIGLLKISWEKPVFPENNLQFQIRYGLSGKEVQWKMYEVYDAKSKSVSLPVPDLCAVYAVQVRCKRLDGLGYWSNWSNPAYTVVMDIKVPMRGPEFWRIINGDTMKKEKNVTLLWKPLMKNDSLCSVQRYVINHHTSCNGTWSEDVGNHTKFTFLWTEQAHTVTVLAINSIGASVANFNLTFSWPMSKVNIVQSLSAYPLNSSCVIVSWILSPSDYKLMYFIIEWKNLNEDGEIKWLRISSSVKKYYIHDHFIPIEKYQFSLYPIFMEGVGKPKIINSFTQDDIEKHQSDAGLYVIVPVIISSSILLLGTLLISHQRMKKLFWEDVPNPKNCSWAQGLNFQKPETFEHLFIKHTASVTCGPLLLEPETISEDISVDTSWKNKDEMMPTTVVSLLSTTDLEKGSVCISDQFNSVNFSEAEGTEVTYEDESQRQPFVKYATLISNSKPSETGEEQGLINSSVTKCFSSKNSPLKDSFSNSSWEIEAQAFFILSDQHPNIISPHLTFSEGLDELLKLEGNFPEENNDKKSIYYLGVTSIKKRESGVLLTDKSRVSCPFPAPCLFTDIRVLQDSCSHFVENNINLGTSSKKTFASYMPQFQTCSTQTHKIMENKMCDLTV", "assay": "LIF-R levels in human endometrial cells (immunoprecipitation/Western blot)", "type": "cell-based", "conditions": "for effect on leptin-induced increase of LIF-R levels: leptin 62 nM, peptide 300 nM, 24 h; for leptin-induced expression of LIF-R: leptin 3-62 nM", "experimental": "(§1) Primary human endometrial cells (ESC and EEC) were cultured for 5-9 days in DMEM-F12 medium containing 5% fetal bovine serum (FBS), 5 μg/ml insulin, 1% amphopthericin B, 100 μg/ml streptomycin and 100 U/ml penicillin until they were 80% confluent. Two types of endometrial epithelial cell lines, HES (originally derived from a benign proliferative endometrium) and Ishikawa (human endometrial epithelial adenocarcinoma, ECACC 9832301, Wiltshire, England) were cultured under the same conditions described above. The cells were washed twice with 100 mM phosphate saline buffer (PBS), pH 7.2 and cultured for additional 2 days in the same medium but without FBS (basal medium). Cells were washed as described before and cultured in basal medium containing leptin (0, 3, 10 or 62 nM) or IL-1β (0.6, 3 and 10 nM).\nThe anti-OB-R antibody (10 and 20 μg/ml) and LPA-2, a specific inhibitor of OB-R (3, 120, 300 nM or 30 μM) were used to assess whether leptin-induced effects were regulated primarily by the OB-R. Non-specific species-matched IgGs to the OB-R antibody and a scrambled version of LPA-2 (LPA-2Sc) served as negative controls (Gonzalez and Leavis, Endocrine 21: 185-195 (2003)). Inhibitors of IL-1R were used (monoclonal antibody anti-IL-1R tl and IL-1Ra) to assess whether leptin activated IL-1 induced signaling pathways or just activated similar components responsible for LIF/LIF-R expression. Treatment with the cytokine, inhibitor or the two combined was implemented for 5, 15, 30 and 60 min, and 24 and 48 h. The cells were prepared for Western blot analysis. The conditioned media was collected, lyophilized and stored at −80° C. until analysis for LIF, IL-1β and IL-1Ra by ELISA could be performed. Duplicate wells were run for each treatment and the experiments repeated at least three times with different cell preparations.\nEndometrial cells were washed with ice-cold PBS and lysed by homogenization on ice with lysis buffer A [[…] Tris, pH 7.4, containing 137 nM NaCl, 2 mM EDTA, 10% glycerol, 50 mM β-glycerophosphate, 1% Nonidet P-40 and a mixture of proteases and phosphatase inhibitors composed of 100 μM antipain, 0.1 mg/ml trypsin inhibitor, protease inhibitor cocktail 1:50 (Sigma), 50 nM NaF, 2 mM phenyl-methylsulfonyl fluoride, and 2 mM sodium orthovanadate]. Cellular lysates were centrifuged at 2400 g at 4° C. for 10 min. For nuclear lysates the cells were scraped from the culture plates and homogenized with lysis buffer B (10 nM Tris, pH 7.4, 0.25 M sucrose, 0.1 mM EDTA containing the same mixture of protease and phosphatase inhibitors as buffer A). Protein concentrations were determined using the Bradford protein assay (BioRad Laboratories Inc., Hercules, Calif.).\n30 μg of protein from nuclear or cellular lysates were incubated in ependorf tubes containing 0.5 μg of primary antibodies (anti-LIF-R, OB-R, STAT3 and p-STAT3 diluted in buffer A) for 2 h at 4° C. under constant stirring. The immuno-complexes were incubated with 20 μl of Protein G-Agarose (Amersham Pharmacia Biotech) diluted 1:1 with buffer A for a 2 additional hours under constant stirring. The beads were centrifuged for 1 min at 1000 g and washed with buffer A containing 0.5 M NaCl followed by a final wash with buffer A.\nCellular lysates and their immunoprecipitates containing 10-30 μg of protein plus Laemmli buffer (1:1) were incubated at 95° C. for 5 min. Electrophoresis was performed at 220 V for 5 min followed by 130 V for 45 min (BioRad, electrophoresis apparatus) on 7.5% (for STAT3, p-STAT3, LIF-R and IL-1R tl) and 10% (for OB-R) SDS-PAGE gels. Nuclear lysates were also used to detect p-STAT3. Electroblotting onto 0.2 μm nitrocellulose membranes was performed at 22 V overnight at 4° C. in 48 nM Tris-39 nM glycine buffer containing 0.037% SDS and 20% methanol. […]"}, "[2]": {"target": "T1, OB-R", "assay": "IL-1R tl levels in human endometrial epithelial cells (Western blot)", "type": "cell-based", "conditions": "EEC cultures", "experimental": "as §1, with “nM). […]” for “nM).”\nEndometrial cells were washed with ice-cold PBS and lysed by homogenization on ice with lysis buffer A [[…] Tris, pH 7.4, containing 137 nM NaCl, 2 mM EDTA, 10% glycerol, 50 mM β-glycerophosphate, 1% Nonidet P-40 and a mixture of proteases and phosphatase inhibitors composed of 100 μM antipain, 0.1 mg/ml trypsin inhibitor, protease inhibitor cocktail 1:50 (Sigma), 50 nM NaF, 2 mM phenyl-methylsulfonyl fluoride, and 2 mM sodium orthovanadate]. […] Protein concentrations were determined using the Bradford protein assay (BioRad Laboratories Inc., Hercules, Calif.). […]"}}}
{"substance": "SRNVIQISNDLENLRDLLHVLAFSKS [LPA-2, 26 amino acid peptide, residues 70-95 of helix III of the human leptin molecule; leptin peptide antagonist]", "values": [{"measurement": "effect on leptin-induced increase of LIF-R levels", "setting": "[1]; Ishikawa cells", "result": "reduced the leptin-induced increase"}, {"measurement": "effect on leptin-induced IL-1R tl levels", "setting": "[2]", "result": "inhibited the leptin-induced effects"}]}
{"substance": "VAEVLNRSDLIQRISFSLDLNNSKLH [LPA-2Sc, scrambled version of LPA-2, negative control, reference compound]", "values": [{"measurement": "effect on leptin-induced increase of LIF-R levels", "setting": "[1]; Ishikawa cells", "result": "had no effect on LIF-R levels"}]}
{"substance": "leptin: human recombinant leptin (R&D Systems), OB-R ligand used as stimulus", "values": [{"measurement": "leptin-induced expression of LIF-R", "setting": "[1]; HES cells", "result": "1.3-2 fold"}, {"measurement": "leptin-induced expression of LIF-R", "setting": "[1]; Ishikawa cells", "result": "1.5-3 fold"}, {"measurement": "leptin-induced expression of LIF-R", "setting": "[1]; primary EEC", "result": "1.7-8 fold"}, {"measurement": "leptin-induced expression of LIF-R", "setting": "[1]; primary ESC", "result": "1.4-3.2 fold"}, {"measurement": "IL-1R tl levels after leptin", "setting": "[2]", "result": "increase the levels of IL-1R tl"}]}
